No end group written: not given here.
Tests used:
Type in all cases: cell-based
[1] = system: TfnR uptake via CME in ARPE/HPV cells; test: TfnR uptake (in-cell ELISA) after peptide preincubation; conditions: 60-min preincubation with peptide at 37°C, concentration curves, n = 4 replicates (Fig. 7 F), read-out: IC50 for inhibition of TfnR uptake
Experimental: Peptides encoding the TAT sequence (YGRKKRRQRRR) followed by 10 amino acid sequences covering the four reported binding sites on the clathrin terminal domain (Fig. 7 A) were synthesized by GenScript (Piscataway, NJ) with >95% purity. Peptides were dissolved in dH2O and further diluted in PBS4+ (1× PBS buffer plus 0.2% BSA, 1 mM CaCl2, 1 mM MgCl2, and 5 mM D-glucose) or cell culture medium (for imaging) when applied to cells. Peptide solutions were stored at −20°C.
(§1) Internalization of TfnR, CD44, CD59, and Biotin-Tfn was quantified by in-cell ELISA following established protocols ([Conner and Schmid, 2003]; [Srinivasan et al., 2018]). Cells were seeded in 96-well plates (Costar) at 60–70% confluence and grown overnight. Before the assay, cells were starved for 30 min in PBS4+ at 37°C or treated with peptides in PBS4+ at 37°C for the indicated times. After starvation, cells were moved to 4°C, and culture medium was replaced with cold PBS4+ containing 5 µg/ml HTR-D65 (anti-TfnR mAb; [Schmid and Smythe, 1991]), anti-human CD44 or anti-human CD59 (BD PharMingen) or 5 µg/ml Biotin-Tfn (Sigma-Aldrich). For single-round assays, the above reagents were kept with cells for 20 min at 4°C and then washed out before uptake assay. For multiround assays, the above reagents were kept with cells throughout the uptake process. In parallel, some cells were kept at 4°C for the measurement of surface-bound ligands and blank controls, and some were incubated in a 37°C water bath for the indicated times. Acid wash (0.2 M acetic acid and 0.2 M NaCl, pH 2.3) was used to remove surface-bound antibodies, followed by washing with cold PBS. All were fixed with 4% PFA (Electron Microscopy Sciences) in PBS for 30 min at 37°C. 0.1% Triton X-100 was added for 6.5 min to permeabilize cells, followed by addition of blocking buffer. HTR-D65–, CD44-, and CD59-treated cells were blocked with Q-PBS (PBS, 2% BSA, 0.1% lysine, and 0.01% saponin, pH 7.4), and Biotin-Tfn–treated cells were blocked with 2% casein. Surface-bound and internalized HTR-D65, CD44, and CD59 were probed with goat anti-mouse antibody conjugated with HRP (Sigma-Aldrich), and Biotin-Tfn was probed with Streptavidin-POD conjugate (Sigma-Aldrich). Color was developed using o-phenylenediamine dihydrochloride (OPD) solution (Sigma-Aldrich), and absorbance was read at 490 nm (Biotek Synergy H1 Hybrid Reader). Cell number variation among wells was accounted for by bicinchoninic acid assay reading at 562 nm.

[2] = system: ARPE/HPV eGFP-CLCa cells; test: TIRFM CCP dynamics with TDD/TD overexpression; conditions: TIRFM and cmeAnalysis (Fig. 3 C, Fig. 4 C)
Experimental: Cells were seeded on a gelatin-coated 22 × 22–mm cover glass (Corning; 2850-22) overnight and moved to fresh cell culture medium 30 min before being mounted on a 25 × 75–mm slide (Thermo Fisher Scientific; 3050). Imaging was conducted with a 60×, 1.49-NA Apo TIRF objective (Nikon) mounted on a Ti-Eclipse inverted microscope. Perfect focus was used during time-lapse imaging. TIRF penetration depth was ∼80 nm. Videos were acquired for 7.5 min at the rate of 1 frame/s for all live-cell imaging. For dual-color imaging, two sequential images of primary and secondary channel were taken within 1 s, and the video length was the same as single-channel imaging. Published cmeAnalysis software was used for CCP detection, tracking, and quantification ([Aguet et al., 2013]; [Jaqaman et al., 2008]; [Loerke et al., 2011]).

[3] = system: CD44 uptake in ARPE/HPV cells; test: CD44 uptake (clathrin-independent endocytosis marker); conditions: TDD expression (0 ng/ml Tet), ARPE/HPV cells (Fig. 2 F)
Experimental: as §1, with “Acid wash (0.2 M acetic acid and 0.2 M NaCl, pH 2.3) was used to remove surface-bound antibodies, followed by washing with cold PBS. All were fixed with 4% PFA (Electron Microscopy Sciences) in PBS for 30 min at 37°C. 0.1% Triton X-100 was added for 6.5 min to permeabilize cells, followed by addition of blocking buffer. HTR-D65–, CD44-, and CD59-treated cells were blocked with Q-PBS (PBS, 2% BSA, 0.1% lysine, and 0.01% saponin, pH 7.4), and Biotin-Tfn–treated cells were blocked with 2% casein. Surface-bound and internalized HTR-D65, CD44, and CD59 were probed with goat anti-mouse antibody conjugated with HRP (Sigma-Aldrich), and Biotin-Tfn was probed with Streptavidin-POD conjugate (Sigma-Aldrich).” left out

[4] = system: Tfn recycling; test: Biotin-Tfn recycling assay; conditions: TDD expression (0 ng/ml Tet), ARPE/HPV cells, 10- or 30-min pulse (Fig. 2 D)
Experimental: Biotin-Tfn recycling was conducted according to previous protocols ([Chen et al., 2017]). Cells were cultured in biotin-free medium for 48 h, seeded in 96-well plates (Costar) at 60–70% confluence, and grown overnight. Before assay, cells were starved for 45 min in PBS4+ at 37°C or treated with peptides in PBS4+ at 37°C for the indicated times. After starvation, cells were supplied with 100 µl of 5 µg/ml Biotin-Tfn in PBS4+ for 10 or 30 min to load Biotin-Tfn into cells. When loading was complete, cells were cooled down to 4°C and washed with PBS4+ to remove extra Biotin-Tfn. Some cells were kept at 4°C as loading controls. The remaining cells were first treated with avidin and biocytin to mask the surface-bound Biotin-Tfn, and then incubated at 37°C for the indicated times. All the cells were then acid washed and fixed with 4% PFA as above. Blocking steps were the same as for the Biotin-Tfn uptake assay. Data were expressed as percentage of total intracellular ligand remaining relative to the initial load.

[5] = system: association of AP2 with the membrane pellet, ARPE cells; test: Subcellular fractionation, AP2 in membrane pellet; conditions: cells with TDD overexpression, n = 3; control cells 59 ± 14% (Fig. 5 E)
Experimental: Confluent ARPE or ARPE/HPV cells in a 10-cm dish were detached with 3 ml of 50 mM EDTA at 37°C for 10 min. Extra EDTA after detachment was neutralized with 0.2 ml of 1 M MgCl2. Cells were then spun down at 500 g for 3 min and washed with cold PBS. After another spin to remove PBS, cells were resuspended in 0.5 ml ice-cold lysis buffer (25 mM Hepes, 250 mM sucrose, 1 mM MgCl2, and 2 mM EGTA, pH 7.4). Cells were then lysed by five rounds of freeze–thaw cycle (rapid freezing in liquid nitrogen and slow thawing in room temperature water bath, followed by brief vortex and 10-s sonication). Intact cells and nuclei were removed by centrifugation for 2 min at 500 g. 0.1 ml of lysed sample was kept as total control, and the rest (0.4 ml) underwent ultracentrifugation at 4°C for 30 min at 110,000 g to separate membranes (pellet) from cytosol (supernatant). Supernatant was transferred to another low binding Eppendorf, and the pellet was resuspended with the same volume of lysis buffer (0.4 ml). Total, pellet, and supernatant were heat denatured in 1× sample buffer and probed by Western blotting.

[6] = system: CD59 uptake in ARPE/HPV cells; test: CD59 uptake (clathrin-independent endocytosis marker); conditions: TDD expression (0 ng/ml Tet), ARPE/HPV cells (Fig. 2 F)
Experimental: as §1, with “Acid wash (0.2 M acetic acid and 0.2 M NaCl, pH 2.3) was used to remove surface-bound antibodies, followed by washing with cold PBS. All were fixed with 4% PFA (Electron Microscopy Sciences) in PBS for 30 min at 37°C. 0.1% Triton X-100 was added for 6.5 min to permeabilize cells, followed by addition of blocking buffer. HTR-D65–, CD44-, and CD59-treated cells were blocked with Q-PBS (PBS, 2% BSA, 0.1% lysine, and 0.01% saponin, pH 7.4), and Biotin-Tfn–treated cells were blocked with 2% casein. Surface-bound and internalized HTR-D65, CD44, and CD59 were probed with goat anti-mouse antibody conjugated with HRP (Sigma-Aldrich), and Biotin-Tfn was probed with Streptavidin-POD conjugate (Sigma-Aldrich).” left out

[7] = system: fluid phase uptake of HRP in ARPE/HPV cells; test: Fluid-phase uptake of HRP; conditions: TDD expression (0 ng/ml Tet), ARPE/HPV cells (Fig. 2 E)
Experimental: Fluid-phase uptake assays were conducted using HRP (Sigma-Aldrich) as the readout. Cells were seeded in 96-well plates (Costar) at 60–70% confluence and grown overnight. Before assay, cell culture medium was changed to PBS4+ and cooled down to 4°C. Ice-cold HRP solution (1 mg/ml) was added to cells and moved to a 37°C water bath for 30 min. In parallel, some cells were kept at 4°C as blank control. All the cells were acid washed (0.2 M acetic acid and 0.2 M NaCl, pH 2.3) and lysed with ELISA blocking buffer (1% Triton X-100, 0.1% SDS, 0.2% BSA, 50 mM NaCl, and 1 mM Tris, pH 7.4) for 1 h at 4°C. Color was developed using OPD solution (Sigma-Aldrich), and absorbance was read at 490 nm (Biotek Synergy H1 Hybrid Reader).

[8] = system: TfnR uptake in ARPE cells; test: TfnR uptake with TDD overexpression (Tet-off adenovirus); conditions: maximum TDD expression, adenovirus-infected ARPE cells, n = 4 replicates (Fig. 2 C)
Experimental: TDD, TD, and tTA adenoviruses were applied to cells directly in culture medium. Pilot experiments were conducted to optimize the volumes of each virus preparation need for uniform infection (Fig. S1, A and B). Experiments were conducted after 12–18 h, allowing for adequate viral infection and protein expression. Protein expression could be regulated by adjusting Tet concentration. All experiments were performed in the absence of Tet, allowing for maximum protein expression, except for Fig. 1, A–C.
Internalization of TfnR, CD44, CD59, and Biotin-Tfn was quantified by in-cell ELISA following established protocols ([Conner and Schmid, 2003]; [Srinivasan et al., 2018]). Cells were seeded in 96-well plates (Costar) at 60–70% confluence and grown overnight. Before the assay, cells were starved for 30 min in PBS4+ at 37°C or treated with peptides in PBS4+ at 37°C for the indicated times. After starvation, cells were moved to 4°C, and culture medium was replaced with cold PBS4+ containing 5 µg/ml HTR-D65 (anti-TfnR mAb; [Schmid and Smythe, 1991]), anti-human CD44 or anti-human CD59 (BD PharMingen) or 5 µg/ml Biotin-Tfn (Sigma-Aldrich). […] Color was developed using o-phenylenediamine dihydrochloride (OPD) solution (Sigma-Aldrich), and absorbance was read at 490 nm (Biotek Synergy H1 Hybrid Reader). Cell number variation among wells was accounted for by bicinchoninic acid assay reading at 562 nm.

YGRKKRRQRRRKAGKTLQIFN [Cbox1]
IC50 [1]: ~60 µM

YGRKKRRQRRRKTLQIFKSKI [Cbox2]
IC50 [1]: > 100 µM

YGRKKRRQRRRLAGCQIINYR [Wbox1]
IC50 [1]: ~3 µM

B1: TD: clathrin heavy chain N-terminal domain, generated by mutating T495 to a stop codon in TDD (protein, UniProt Q00610 1-494, looked up, fragment)
chain: MAQILPIRFQEHLQLQNLGINPANIGFSTLTMESDKFICIREKVGEQAQVVIIDMNDPSNPIRRPISADSAIMNPASKVIALKAGKTLQIFNIEMKSKMKAHTMTDDVTFWKWISLNTVALVTDNAVYHWSMEGESQPVKMFDRHSSLAGCQIINYRTDAKQKWLLLTGISAQQNRVVGAMQLYSVDRKVSQPIEGHAASFAQFKMEGNAEESTLFCFAVRGQAGGKLHIIEVGTPPTGNQPFPKKAVDVFFPPEAQNDFPVAMQISEKHDVVFLITKYGYIHLYDLETGTCIYMNRISGETIFVTAPHEATAGIIGVNRKGQVLSVCVEEENIIPYITNVLQNPDLALRMAVRNNLAGAEELFARKFNALFAQGNYSEAAKVAANAPKGILRTPDTIRRFQSVPAQPGQTSPLLQYFGILLDQGQLNKYESLELCRPVLQQGRKQLLEKWLKEDKLECSEELGDLVKSVDPTLALSVYLRANVPNKVIQCFAE
modifications: HA tag
notes: clathrin heavy chain N-terminal domain, generated by mutating T495 to a stop codon in TDD
CCP initiation [2]: sufficient to suppress

B2: TDD: clathrin heavy chain fragment (residues 1–1,074): N-terminal domain plus distal leg, overexpressed by Tet-off adenovirus (protein)
chain: MAQILPIRFQEHLQLQNLGINPANIGFSTLTMESDKFICIREKVGEQAQVVIIDMNDPSNPIRRPISADSAIMNPASKVIALKAGKTLQIFNIEMKSKMKAHTMTDDVTFWKWISLNTVALVTDNAVYHWSMEGESQPVKMFDRHSSLAGCQIINYRTDAKQKWLLLTGISAQQNRVVGAMQLYSVDRKVSQPIEGHAASFAQFKMEGNAEESTLFCFAVRGQAGGKLHIIEVGTPPTGNQPFPKKAVDVFFPPEAQNDFPVAMQISEKHDVVFLITKYGYIHLYDLETGTCIYMNRISGETIFVTAPHEATAGIIGVNRKGQVLSVCVEEENIIPYITNVLQNPDLALRMAVRNNLAGAEELFARKFNALFAQGNYSEAAKVAANAPKGILRTPDTIRRFQSVPAQPGQTSPLLQYFGILLDQGQLNKYESLELCRPVLQQGRKQLLEKWLKEDKLECSEELGDLVKSVDPTLALSVYLRANVPNKVIQCFAETGQVQKIVLYAKKVGYTPDWIFLLRNVMRISPDQGQQFAQMLVQDEEPLADITQIVDVFMEYNLIQQCTAFLLDALKNNRPSEGPLQTRLLEMNLMHAPQVADAILGNQMFTHYDRAHIAQLCEKAGLLQRALEHFTDLYDIKRAVVHTHLLNPEWLVNYFGSLSVEDSLECLRAMLSANIRQNLQICVQVASKYHEQLSTQSLIELFESFKSFEGLFYFLGSIVNFSQDPDVHFKYIQAACKTGQIKEVERICRESNCYDPERVKNFLKEAKLTDQLPLIIVCDRFDFVHDLVLYLYRNNLQKYIEIYVQKVNPSRLPVVIGGLLDVDCSEDVIKNLILVVRGQFSTDELVAEVEKRNRLKLLLPWLEARIHEGCEEPATHNALAKIYIDSNNNPERFLRENPYYDSRVVGKYCEKRDPHLACVAYERGQCDLELINVCNENSLFKSLSRYLVRRKDPELWGSVLLESNPYRRPLIDQVVQTALSETQDPEEVSVTVKAFMTADLPNELIELLEKIVLDNSVFSEHRNLQNLLILTAIKADRTRVMEYINRLDNYDAPDIANIAISNELFEEAFAIFRK
modifications: left off: HA, N-terminal, kept
notes: clathrin heavy chain fragment (residues 1–1,074): N-terminal domain plus distal leg, overexpressed by Tet-off adenovirus
CD44 uptake (CIE) [3]: not significantly inhibited
recycling of Tfn [4]: not significantly perturbed
association of AP2 with the membrane pellet [5]: 76 ± 14%
CD59 uptake (CIE) [6]: not significantly inhibited
CCP initiation [2]: dramatically decreased
fluid phase uptake (HRP) [7]: not significantly inhibited
inhibition of endocytic efficiency of TfnR [8]: 80%

— publication PMC7480105, “Wbox2: A clathrin terminal domain–derived peptide inhibitor of clathrin-mediated endocytosis” (The Journal of Cell Biology, 2020)
